Like-named read-outs stand apart in the source and are kept apart here.
B1: Recombinant human BMP-6 (ligand, UniProt P22004 375-513, looked up)
chain: SASSRRRQQSRNRSTQSQDVARVSSASDYNSSELKTACRKHELYVSFQDLGWQDWIIAPKGYAANYCDGECSFPLNAHMNATNHAIVQTLVHLMNPEYVPKPCCAPTKLNAISVLYFDDNSNVILKKYRNMVVRACGCH
B6: BMPRII-Fc (Fc fusion, human, UniProt Q13873 27-136, looked up)
chain: SQNQERLCAFKDPYQQDLGIGESRISHENGTILCSKGSTCYGLWEKSKGDINLVKQGCWSHIGDPQECHYEECVVTTTPPSIQNGTYRFCCCSTDLCNVNFTENFPPPDT
B7: Recombinant human Activin B (ligand, UniProt P09529 293-407, looked up)
chain: GLECDGRTNLCCRQQFFIDFRLIGWNDWIIAPTGYYGNYCEGSCPAYLAGVPGSASSFHTAVVNQYRMRGLNPGTVNSCCIPTKLSTMSMLYFDDEYNIVKRDVPNMIVEECGCA

What was measured:
[1] = target: short-form Cerberus Fc fusion protein (CerS-Fc) (human) (UniProt O95813); assay: SPR
[2] = target: short-form Cerberus, Fc free (CerS) (human) (UniProt O95813); assay: cross-linking
[3] = target: Recombinant human Activin B (human) (UniProt P09529); assay: SPR
[4] = target: Recombinant human Activin B (human) (UniProt P09529); assay: SPR; remark: listed apart in the source
[5] = target: T1, wild-type Cerberus Fc fusion protein (wtCer-Fc) (human, UniProt O95813 18-267); assay: SPR
T1 sequence (looked up): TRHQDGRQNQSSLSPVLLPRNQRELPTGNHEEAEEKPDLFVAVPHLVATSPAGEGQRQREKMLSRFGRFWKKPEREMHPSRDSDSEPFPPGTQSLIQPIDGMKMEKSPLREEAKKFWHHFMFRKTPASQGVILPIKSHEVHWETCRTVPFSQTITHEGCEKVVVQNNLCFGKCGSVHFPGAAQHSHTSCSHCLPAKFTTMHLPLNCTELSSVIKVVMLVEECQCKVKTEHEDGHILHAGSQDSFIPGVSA

[6] = target: T2, mutant Cerberus Fc fusion protein (mutCer-Fc) (human, UniProt O95813 18-267, Arg82Gly | Cys206Ala); assay: SPR
T2 sequence (looked up): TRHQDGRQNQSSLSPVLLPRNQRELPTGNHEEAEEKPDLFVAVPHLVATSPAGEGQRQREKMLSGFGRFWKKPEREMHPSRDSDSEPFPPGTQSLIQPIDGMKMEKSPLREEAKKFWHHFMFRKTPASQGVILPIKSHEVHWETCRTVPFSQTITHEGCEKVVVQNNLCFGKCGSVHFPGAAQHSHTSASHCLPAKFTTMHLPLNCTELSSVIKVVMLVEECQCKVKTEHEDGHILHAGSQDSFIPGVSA

[7] = target: B7; assay: SPR
[8] = target: B1; assay: SPR
[9] = target: B7; assay: SPR; remark: listed apart in the source
[10] = target: B1; assay: SPR; remark: listed apart in the source
[11] = target: the molecule itself; assay: SEC
[12] = target: B6; assay: SPR
[13] = target: B7; assay: SPR; remark: listed apart in the source
[14] = target: B1; assay: SPR; remark: listed apart in the source

“Recombinant human BMP-7 (from UniProt P18075 293-431) (ligand)” showed a Kd [1] of 15.6 nM, a koff [1] of 0.0021 s⁻¹ and a kon [1] of 140000 M⁻¹ s⁻¹.

In the case of “Recombinant human BMP-6 (from UniProt P22004 375-513) (ligand)”, the Kd [1] is reported as 15.2 nM and the koff [1] is reported as 0.0012 s⁻¹.

“short-form Cerberus, Fc free (CerS) (from UniProt O95813 18-267) (domain or fragment)” gave a stoichiometry N [2] of 2, an IC50 [3] of 28.4 nM and an IC50 [4] of 261 nM. For the same molecule, the percent reduction of Activin B binding to ActRIIA at 50 nM [4] was 10%.

B1 gave a Kd [5] of 19.1 ± 2.5 nM, a koff [5] of 0.0011 s⁻¹ and a kon [5] of 55000 M⁻¹ s⁻¹. It also gave a Kd [6] of 14.7 ± 3.6 nM, a koff [6] of 0.001 s⁻¹ and a kon [6] of 70000 M⁻¹ s⁻¹.

B2: Recombinant human BMP-7 (ligand, UniProt P18075 293-431, looked up)
chain: STGSKQRSQNRSKTPKNQEALRMANVAENSSSDQRQACKKHELYVSFRDLGWQDWIIAPEGYAAYYCEGECAFPLNSYMNATNHAIVQTLVHFINPETVPKPCCAPTQLNAISVLYFDDSSNVILKKYRNMVVRACGCH
For B2, the Kd [5] was 17.3 ± 0.8 nM, the koff [5] was 0.0028 s⁻¹ and the kon [5] was 160000 M⁻¹ s⁻¹. It also gave a Kd [6] of 9.8 ± 0.9 nM, a koff [6] of 0.0012 s⁻¹ and a kon [6] of 130000 M⁻¹ s⁻¹.

B3: wild-type Cerberus, Fc free (wtCer) (natural protein, human, UniProt O95813 18-267, looked up)
chain: TRHQDGRQNQSSLSPVLLPRNQRELPTGNHEEAEEKPDLFVAVPHLVATSPAGEGQRQREKMLSRFGRFWKKPEREMHPSRDSDSEPFPPGTQSLIQPIDGMKMEKSPLREEAKKFWHHFMFRKTPASQGVILPIKSHEVHWETCRTVPFSQTITHEGCEKVVVQNNLCFGKCGSVHFPGAAQHSHTSCSHCLPAKFTTMHLPLNCTELSSVIKVVMLVEECQCKVKTEHEDGHILHAGSQDSFIPGVSA
In the case of B3, the IC50 [7] is reported as 14.9 ± 4.2 nM, the IC50 [8] is reported as 156 ± 9.2 nM and the IC50 [9] is reported as 26.2 ± 1.7 nM. For the same molecule, the IC50 [10] was 319 ± 53.4 nM.

B4: mutant Cerberus, Fc free (mutCer) (natural protein, human, UniProt O95813 18-267, looked up)
chain: TRHQDGRQNQSSLSPVLLPRNQRELPTGNHEEAEEKPDLFVAVPHLVATSPAGEGQRQREKMLSGFGRFWKKPEREMHPSRDSDSEPFPPGTQSLIQPIDGMKMEKSPLREEAKKFWHHFMFRKTPASQGVILPIKSHEVHWETCRTVPFSQTITHEGCEKVVVQNNLCFGKCGSVHFPGAAQHSHTSASHCLPAKFTTMHLPLNCTELSSVIKVVMLVEECQCKVKTEHEDGHILHAGSQDSFIPGVSA
In the case of B4, the IC50 [7] is reported as 7.4 ± 1.1 nM, the IC50 [8] is reported as 48.3 ± 3.5 nM and the “stoichiometry N” value [11] is reported as 2. For the same molecule, the IC50 [9] was 40.1 ± 2.5 nM and the IC50 [10] was 350 ± 96.1 nM.

B5: Recombinant human Nodal (ligand, UniProt Q96S42 238-347, looked up)
chain: HHLPDRSQLCRKVKFQVDFNLIGWGSWIIYPKQYNAYRCEGECPNPVGEEFHPTNHAYIQSLLKRYQPHRVPSTCCAPVKTKPLSMLYVDNGRVLLDHHKDMIVEECGCL
B5: binds [12].

B6: binds [13]; binds [14].

B7 showed a Kd [5] of 0.096 ± 0.01 nM, a koff [5] of 0.00022 s⁻¹ and a kon [5] of 2.3e+06 M⁻¹ s⁻¹. For the same molecule, the Kd [6] was 0.016 ± 0.003 nM, the koff [6] was 3.1e-05 s⁻¹ and the kon [6] was 2e+06 M⁻¹ s⁻¹.
